Several values for one entry are separate records, joined by “and”; a condition that tells them apart may be missing. Equal entries are not always repeated. Where two headings read alike, the source gives them in different places.
Tests used:
[1] = molecular target: T1, human CD39 (full length, on cells) (human, UniProt P49961 1-510); experiment: FACS, MOLP-8 cells
T1 construct: Recombinant on CHOK1-hCD39 cells or natural on SK-MEL-28, SK-MEL-5 and MOLP-8 cells; the cell line is named under assay; also called hCD39; ENTPD1
T1 sequence: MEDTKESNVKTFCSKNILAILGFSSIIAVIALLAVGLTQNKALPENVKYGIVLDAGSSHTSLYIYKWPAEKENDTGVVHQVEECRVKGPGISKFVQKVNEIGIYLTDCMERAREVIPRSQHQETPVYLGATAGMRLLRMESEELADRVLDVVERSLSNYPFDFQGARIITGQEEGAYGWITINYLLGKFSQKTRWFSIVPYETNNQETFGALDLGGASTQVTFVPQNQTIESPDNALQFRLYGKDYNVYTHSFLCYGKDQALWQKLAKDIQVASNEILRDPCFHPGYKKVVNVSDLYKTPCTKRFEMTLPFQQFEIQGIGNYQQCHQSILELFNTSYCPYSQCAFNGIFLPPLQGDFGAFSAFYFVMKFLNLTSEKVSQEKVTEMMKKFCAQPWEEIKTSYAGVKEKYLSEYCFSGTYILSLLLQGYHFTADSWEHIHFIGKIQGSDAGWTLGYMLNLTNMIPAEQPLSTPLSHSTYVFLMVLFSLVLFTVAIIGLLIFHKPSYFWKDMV
Method: (§1) Similarly, human CD39 expressing cells SK-MEL-5, SK-MEL-28 or MOLP-8, were incubated with a gradient concentration of anti-CD39 antibodies for 30 minutes at 4° C. Cells were washed 3 times using FACS buffer and next incubated with fluorescence labelled secondary antibody (goat-anti-mouse IgG or goat anti-human IgG) for 30 minutes at 4° C. Cells were washed 3 times and then re-suspended in FACS buffer and analyzed by flow cytometry analysis on BD Celesta. Data plotted and analyzed using GraphPad Prism 8.02.
The binding affinity of the humanized antibodies for c14 was determined by FACS using MOLP-8 cells expressing human CD39, using similar methods as described in Example 3.2.

[2] = molecular target: T1, human CD39 (full length, on cells); experiment: FACS, MOLP-8 cells; remark: listed apart in the source
Method: as §1
(§2) The binding affinity of the humanized antibodies for c23 was determined by FACS, using similar methods as described in Example 3.2. The c23 humanized antibody clones showing good binding affinity are listed in below Table 19 and Table 20, and also shown in FIGS. 7A, 7B and FIG. 8. EC₅₀ is the concentration of the indicated antibodies to reach 50% of the signal in this assay.

[3] = molecular target: T1, human CD39 (full length, on cells); experiment: FACS, MOLP-8 cells; remark: listed apart in the source
Method: as §1, §2

[4] = molecular target: T1, human CD39 (full length, on cells); experiment: cell-based or functional assay
6×His tagged human CD39 = molecular target: T2, 6×His tagged human CD39 (human, UniProt P49961 38-478); experiment: Biacore SPR, antibody captured on CM5 chip, His-tagged CD39 as analyte
T2 construct: Analyte in the Biacore assay
T2 sequence: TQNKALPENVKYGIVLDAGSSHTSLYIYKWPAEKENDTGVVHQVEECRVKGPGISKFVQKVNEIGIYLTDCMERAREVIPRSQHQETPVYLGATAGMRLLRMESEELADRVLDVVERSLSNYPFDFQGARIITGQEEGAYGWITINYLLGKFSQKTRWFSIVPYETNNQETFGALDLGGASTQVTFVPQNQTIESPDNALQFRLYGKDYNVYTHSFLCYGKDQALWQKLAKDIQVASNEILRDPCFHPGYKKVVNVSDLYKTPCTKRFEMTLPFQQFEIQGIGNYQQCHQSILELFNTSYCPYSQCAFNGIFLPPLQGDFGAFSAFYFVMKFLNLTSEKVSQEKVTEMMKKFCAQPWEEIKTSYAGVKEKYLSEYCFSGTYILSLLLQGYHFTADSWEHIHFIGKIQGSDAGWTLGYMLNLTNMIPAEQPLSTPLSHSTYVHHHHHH
Method: In particular, humanized antibodies hu23.H5L5, hu23.201, hu14.H1L1 and reference antibodies 1394 and T895 were characterized for binding affinity against human CD39 using Biacore (GE). Briefly the antibodies to be tested were captured to CM5 chip (GE) using Human Antibody Capture Kit (GE). The antigen of 6×His tagged human CD39 was serially diluted for multiple doses and injected at 30 μl/min for 180s. Buffer flow was maintained for dissociation of 400s. 3 M MgCl2 was used for chip regeneration. The association and dissociation curves were fit with 1:1 binding model, and the Ka/Kd/KD values for each antibody were calculated.

| Binder | EC50 [1] | EC50 [2] | ATPase inhibition IC50 on SK-MEL-28 cells [4] | other results |
| --- | --- | --- | --- | --- |
| hu14.H3L1 (antibody, V domains shown, humanized c14) VH: EVQLVESGGGLVKPGGSLRLSCAASGFTFSKYWMNWVRQSPGKGLEWVAEIRLKSNKYGTHYAESVKGRFTISRDDSKNTVYLQMNSLKTEDTAVYYCTTQLDLYWFFDVWGQGTTVTVSS VL: EIVLTQSPATLSLSPGERATLSCRASQSISDYLHWYQQKPGQAPRLLIYYASQSISGIPARFSGSGSGTDFTLTISSLEPEDFAVYYCQNGHSLPLTFGGGTKLEIK | 5.95 nM | – | – | – |
| hu14.H3L4 (antibody, V domains shown, humanized c14) VH: EVQLVESGGGLVKPGGSLRLSCAASGFTFSKYWMNWVRQSPGKGLEWVAEIRLKSNKYGTHYAESVKGRFTISRDDSKNTVYLQMNSLKTEDTAVYYCTTQLDLYWFFDVWGQGTTVTVSS VL: EIVMTQSPATLSVSPGERVTLSCRASQSISDYLHWYQQKPGQSPRLLIYYASQSISGIPARFSGSGSGTDFTLTISSVEPEDFAVYFCQNGHSLPLTFGGGTKLEIK | 6.05 nM | – | – | – |
| hu14.H3L3 (antibody, V domains shown, humanized c14) VH: EVQLVESGGGLVKPGGSLRLSCAASGFTFSKYWMNWVRQSPGKGLEWVAEIRLKSNKYGTHYAESVKGRFTISRDDSKNTVYLQMNSLKTEDTAVYYCTTQLDLYWFFDVWGQGTTVTVSS VL: EIVLTQSPATLSVSPGERATLSCRASQSISDYLHWYQQKPGQSPRLLIYYASQSISGIPARFSGSGSGTDFTLTISSVEPEDFAVYFCQNGHSLPLTFGGGTKLEIK | 6.09 nM | – | – | – |
| hu14.H4L4 (antibody, V domains shown, humanized c14) VH: EVQLVESGGGLVKPGGSMRLSCAASGFTFSKYWMNWVRQSPGKGLEWVAEIRLKSNKYGTHYAESVKGRFTISRDDSKNTVYLQMNSLKTEDTAVYYCTTQLDLYWFFDVWGQGTTVTVSS VL: EIVMTQSPATLSVSPGERVTLSCRASQSISDYLHWYQQKPGQSPRLLIYYASQSISGIPARFSGSGSGTDFTLTISSVEPEDFAVYFCQNGHSLPLTFGGGTKLEIK | 5.46 nM | – | – | – |
| c14 (antibody, V domains shown, variable regions of mAb14 on human IgG constant regions; also called chimeric antibody c14) VH: EVKLEESGGGLVQPGGSMKLSCVASGFTFSKYWMNWVRQSPEKGLEWVAEIRLKSNKYGTHYAESVKGRFTISRDDSKNNVYLQMNNLRPEDTGIYYCTTQLDLYWFFDVWGAGTTVTVSS VL: DIVMTQSPAILSVTPGDRVSLSCRASQSISDYLHWYQQKSHESPRLLIKYASQSISGIPSRFSGSGSGSNFTLSINSVEPEDVGVYFCQNGHSLPLTFGAGTKLELR | 17.5 nM | – | – | – |
| c23 (antibody, V domains shown, variable regions of mAb23 on human IgG constant regions; also called chimeric antibody c23) VH: EVQLQQSGAELLRPGASVKLSCTASGYNLKDTFLHWVKQRPEQGLEWIGRIDPANGNIKYDPKFQGKATLTADTSSNTAYLQLISLTSEDTAVYYCANSPYYYGSGYRIFDVWGAGTTVTVSS VL: QIVLTQSPAIMSASPGEKVTITCSAFSSVNYMHWYQQKPGTSPKLLIYTTSNLASGVPTRFSGSGSGTSYSLTISRMEAEDAATYYCQQRSTYPFTFGSGTKLEIQ | – | 1.28 nM | 0.158 nM and 0.209 nM | EC50 [3]: 1.03 nM and 0.397 nM |
| hu23.203 (antibody, V domains shown, humanized c23 by yeast display) VH: QVQLVQSGAEVKKPGASVKVSCKASGYTLKDTFLHWVRQAPGQRLEWMGRIDPANGNIKYDPKFQGRVTLTADTSSNTAYMELSSLRSEDTAVYYCANSPYYYGSGYRIFDVWGQGTLVTVSS VL: EIVLTQSPATLTLSPGERATLSCSAFSSVNYMHWYQQKPGQAPRLLIYTTSNLASGIPARFSGSGSGTDYTLTISSLEPEDFAVYYCQQRSTYPFTFGQGTKLEIK | – | 0.429 nM | 0.32 nM | – |
| hu23.211 (antibody, V domains shown, humanized c23 by yeast display) VH: EVQLVQSGAEVKKPGASVKVSCKASGYTLKDTFLHWVRQAPGQRLEWMGRIDPANGNIKYDPKFQGRVTITADTSSNTAYMELSSLRSEDTAVYYCANSPYYYGSGYRIFDVWGQGTLVTVSS VL: EIVLTQSPATLSLSPGERATLSCSAFSSVNYMHWYQQKPGQAPRLLIYTTSNLASGIPARFSGSGSGTDYTLTISSLEPEDFAVYYCQQRSTYPFTFGQGTKLEIK | – | 1.56 nM | 0.386 nM | – |
| hu23.201 (antibody, V domains shown, humanized c23 by yeast display) VH: QVQLVQSGAEVKKPGASVKVSCKASGYTLKDTFLHWVRQAPGQRLEWMGRIDPANGNIKYDPKFQGRVTLTADTSSNTAYMELSSLRSEDTAVYYCANSPYYYGSGYRIFDVWGQGTLVTVSS VL: EIVLTQSPATLSLSPGERATLSCSAFSSVNYMHWYQQKPGQSPRLLIYTTSNLASGIPARFSGSGSGTDYTLTISSLEPEDFAVYYCQQRSTYPFTFGQGTKLEIK | – | 1.29 nM | 0.264 nM | Kd (6×His tagged human CD39): 24 nM; koff (6×His tagged human CD39): 0.00162 s⁻¹; kon (6×His tagged human CD39): 67500 M⁻¹ s⁻¹ |
| hu23.207 (antibody, V domains shown, humanized c23 by yeast display) VH: EVQLVQSGAEVKKPGASVKVSCKASGYTLKDTFLHWVRQAPGQRLEWMGKIDPANGNIKYDPKFQGRVTLTADTSSNTAYMELSSLRSEDTAVYYCANSPYYYGSGYRIFDVWGQGTLVTVSS VL: EIVLTQSPATLSLSPGERATLSCSAFSSVNYMHWYQQKPGQSPRLLIYTTSNLASGIPARFSGSGSGTDYTLTISSLEPEDFAVYYCQQRSTYPFTFGQGTKLEIK | – | 2.25 nM | – | – |
